According to patent publication US20240150797A1, “BIOCATALYTICAL PRODUCTION OF DIHYDROCHALCONES” (Symrise AG, priority 2021, published 2024):

B1: CHI3: Chalcone isomerase from Clostridium sp. JN500901, access no. WP_119972745.1 (protein)
chain: SIEFKPMRSLIYVDVVKEDYRHMLKHWLYYHHIPDSISQFGPYVTKYAFYPALPTPPDGERFGTHRMQLTEHYWLVNPLTPEFKNKTMTEYFPVDVLKWQGNVPDDNEVAILEGKETEKVESGDAARSTGGDNGMPPFIWAFVPISWEEDLKGEGRSMEDGPNYRWQFVMKYPDGVPMEEGDKWFYKEVIPKFQDSPDVTRILTSKIIQNINDCPYQRIVEMWFNCPSGWHRAAVEKAREIKKPSWAKYDEFPYLKPKFEISSLFLTDIAESDNYTQYRGFIPMR
modifications: Clostridium sp. JN500901
B2: CHI7: Chalcone isomerase from Clostridium sp. SY8519, access no. WP_013978403.1 (protein)
chain: ADFKFEPMRSFIYVNCAKEDYRPKLQRWLYKTHVPDSIGQFEPYVTKYAFYPSFPTPPEGERFGYCSMQLTEHHWMVSDFDERLGIKAIAETFPPEVLLWQGNITEGMLEAMKKNGGAPGDDGGDSGNEARSTNMEGANPFIFCFAPYWWEDDIKGKGRTIEDGANYRWNVAIGYPEGVSAEEGDRWLFEEVIPVFEAAPECTRILHSKVKKEINGGSGMEHILEFWFENQSGWYQTAVEATKTLKKPAWAQQDQFPFLKPYHKFISVAVADFTMANNLVNYHGYIPRR
modifications: Clostridium sp. SY8519
B3: CHI10: Chalcone isomerase from Clostridium sp. SY8519, access no. WP_013977558.1 (protein)
chain: ADFEFNPMRSLIYIDCVKNDYRHKLQYWLYKHHIPDSIAKFEPYVSKYAFYSALPVPEDGEEFGTYNYQLTEHYWLCNPLTADFAVNSLQESFTPDVLKWQGIIPDIDITPEMMAAMQNADDARASEGSEAPGFDLPPFIFAFLPLSWEFQTKGEKLTIEDGPNYRWQFLVKYPEAADAEQADKWLMEEVIPAFAQMDEVKRILSSKVKQEVNGCVYYRVVEMWFDSPSDWHRAVKEKTGAISKPEWASTDSFPYLRPKHEMASIFLSDIPTTDNLLQYRGFIPMR
modifications: Clostridium sp. SY8519
B4: CHI11: Chalcone isomerase from Eubacterium sp., access no. SCK02381.1 (protein)
chain: TKNMLGFEPMRSLIYVDVAKEDYRVKLENWLYKYHIPDSISQFGPYVSKYAFYQALPVPEGGERFGAIKMQLTEHYWLANPNNIAQFDHHKALTEYFPPDVLKWQGNLPDEDFQCENVEGDEARAVKGDASKGTVPFIFAFVPVWWEEDYKGAGRTIEDGPNYRWQMVIKFPDDAKDTGDKWLRDEFIPAFVECEETTRILSSKVIKEANGCEFDRVVEMWFEGPSAWKAAVGKAAKKVRRPAWFETEDFPYLTQSYGISSIFLSDIARSDNMTQYNGYVTMR
modifications: Eubacterium sp
B5: CHI13: Chalcone isomerase from Lactobacillus sp. 54-2, access no. WP_125715151.1 (protein)
chain: SFEFRPMRSVIYVDVIKEKYRPKLLHWLYGHHIQDSISKFGPYVTKYAFYNAFPVPPEGERFGTRRMQMTEHYWLINEMTPEMKNNAITEYMPKDVLRWQGNIPDTDAAAAGNVDGDTGRSAGGANGCQPFVFAHVPINWEEDYKGDGRMVADGPNYRWQFVIKYPENLTEAAGEAWFHDEVVPYFKGRPEVHRFMSSRIMQDVVGCEFERLVEMWFDSEDEWYTAAVAGTTALKKPSWAQQNQFPFLTPQFNIVGMFLPDIPTSDNLAQYRGYITMR
modifications: Lactobacillus sp. 54-2
B6: CHI14: Chalcone isomerase from Butyrivibrio sp. AC2005, access no. WP_026657636.1 (protein)
chain: AYEFNLMRSLIYVGLAKEEYRAKLEHWLYNHHVPESISKFSPYVTKYAFYQAYPTPPEGDRFGARKMQLTEHYWLVNEHLPEMANNIFQEFMPMDVLRWQGCIPDVDSATVHDNAESGDAGRAVGGGDFPPFIFAFVPINWEEDFKGKERTPVNGPNFRWQFLIQYPEGCSKDEGERWFHEEVVPFLTGSVRVNRLVSSKVKVNYGAPSAQFDRLVEVWFDGPEEWYDLCVNLAKDKLKKPEWAQQDTFPFLKPQHNIASMFLGDRCTSDNLTQYRGFITMR
modifications: Butyrivibrio sp. AC2005
B7: CHI15: Chalcone isomerase from Clostridioides difficile, access no. WP_095917646.1 (protein)
chain: ADFEFKIMRSLIYVGLAKEEYRPKLMDWLYRHHIPDSISTFGPYCTKYAFYQAYPTPNEGERFGARKMQLTEHYWLVDEHMPEMANRIMTEYMPMDVLRWQGCIPDVENKRVHENVESGDAGRAVGGDNGCPPFIFAFVPINWEEDFRGKGRTVQDGPNYRWQFMIKYPDGISKEEGEKWFYDEVVPYFTNCCYVNRFVSSKIMINYGATAFDRVSELWFEGEEEWYKAVVEETKSFIKKPEWAQEEEFPYLKPQFNIASVFLGDIATMDAYSQYRGYIPMR
modifications: Clostridioides difficile
B8: CHIera Mut2: Chalcone isomerase variant 2 from Eubacterium ramulus, genetically engineered (protein, listed as Eubacterium ramulus)
chain: MADFKFEPMRSLIYVDCVSEDYRPKLQRWIYKVHIPDSISQFEPYVTKYAFYPSFPIPPQGDRFGYARMQLTEHHWLVSPLDPRLEIKAIAETFPMDVLVWQGQIPAAAHTDAQIDSDGDAGRAAGKSNNAEGNPFIFAFLPMWWEKDLKGKGRTIEDGANYRFNMTIGFPEGVDKAEGEKWLFEKVVPILQAAPECTRVLASAVKKDINGCVMDWVLEIWFENQSGWYKVMVDDMKALEKPSWAQQDAFPFLKPYHNVCSAAVADYTPSNNLANYRGYITMR

Legend:
Assay type in all cases: biochemical
Details in all cases: purified CHI in 50 mM PBS, 100 μM substrate, 25° C.
[1] = Specific activity of purified CHI, absorbance decrease at 384 nm, homoeriodictyol chalcone
Description: (§1) E. coli BL21 (DE3) cells containing one of the pET28b plasmids from Table 2 or Table 3 were used to inoculate 1 L LB medium at OD of 0.1. Cells were incubated at 37° C., 250 rpm until the OD reached 0.4-0.6 and induced by supplementing with 0.1 mM IPTG. After protein expression at 28° C., 250 rpm for 16 h, the cells were harvested by centrifugation at 4,000×g for 15 min. The harvested cells were lysed with 0.5 mg/mL lysozyme (Sigma-Aldrich), 0.4 U/mL Benzonase (Sigma-Aldrich) and BugBuster (Merck) at room temperature for 0.5 h to obtain a crude cell extract. The crude extract was centrifuged at 10,000×g for 30 min to remove the pellet. Recombinant proteins were purified by Ni-affinity chromatography (GE Healthcare). The supernatant of the crude extract was loaded on the column with 20 mM imidazole. The column was washed by 5 column volumes of 30 mM imidazole with 20 mM PBS (pH 7.4) and 500 mM NaCl. The target proteins were eluted by 150 mM imidazole with 20 mM PBS (pH 7.4) and 500 mM NaCl. Buffer exchange with 50 mM PBS (pH 7.5) was achieved by ultrafiltration with Amicon Ultra-15 (Merck). The activity of the respective purified enzyme was determined by measuring the absorbance decrease at 384 nm in the reaction mix (CHI in 50 mM PBS with 100 μM of either naringenin chalcone, hesperetin chalcone, eriodictyol chalcone, homoeriodictyol chalcone or 4-O-methyl butein at 25° C.).

[2] = Specific activity of purified CHI, absorbance decrease at 384 nm, naringenin chalcone
Description: as §1

[3] = Specific activity of purified CHI, absorbance decrease at 384 nm, eriodictyol chalcone
Description: as §1

[4] = Specific activity of purified CHI, absorbance decrease at 384 nm, hesperetin chalcone
Description: as §1

Molecule | Specific activity, Homoeriodctiol chalcone [1] | Specific activity, Naringenin chalcone [2] | Specific activity, Eriodictyol chalcone [3] | Specific activity, Hesperetin chalcone [4]
B1 | 7.8 | 20.0 | 13.2 | 12.8
B2 | 50.2 | 68.3 | 123.6 | 6.4
B3 | 0.2 | 0.7 | 2.5 | 1.2
B4 | 11.4 | 23.2 | 10.8 | 5.8
B5 | 21.7 | 32.7 | 66.2 | 2.0
B6 | 28.8 | 45.9 | 50.4 | 2.1
B7 | 2.2 | 14.5 | 11.7 | 1.3
B8 | 3.5 | 4.4 | 8.3 | 11.5
